According to patent publication US20110039785A1, “POLYPEPTIDE-NUCLEIC ACID CONJUGATES AND USES THEREOF” (Angiochem Inc., priority 2007, published 2011):

Experiments:
[1] = test system: liver, lung, kidney, spleen, and muscle cells; conditions: cited from earlier work
BBB = assay: in situ brain perfusion in mice; format: in vivo; conditions: 125 nM radiolabeled conjugate; uptake into the brain; FIG. 20
Method: Transport of the conjugates was measured in vivo using in situ brain perfusion in mice. […] The amount present in the brain parenchyma was determined following brain capillary depletion (FIG. 6).
In situ perfusions using 125 nM of the cleavable and non-cleavable conjugates were performed, and uptake into the brain was measured. Inulin was used as a control. […] Kin values were measured for each protein: The cleavable conjugated has a Kin value of 1.1×10^−4 ml/s/g, the non-cleavable has a Kin value of 4.7×10^−5 ml/s/g, and inulin has a Kin value of 2.1×10^−5 ml/s/g.
Partition into brain compartments of the siRNA following capillary depletion was also measured. This perfusion was also performed at 125 nM.
In situ perfusions were also performed using fluorescent siRNA.

Row | Substance | transport into cells of tissues [1] | Kin (BBB) [mL/s/g]
1 | T F F Y G G S R G R R N N F R T E E Y (TFFYGGSRGRRNNFRTEEY) [AngioPep-7] | efficiently transported into liver, lung, kidney, spleen, and muscle cells | 
2 | inulin |  | 2.1e-05
